For data set [1], the target named is T1, BoERF1L-His (His-BoERF1L; Methods: His-BoERF1) (Brassica oleracea, UniProt A0A0D3ABA8 1-210). The data set can be described thus: EMSA; EMSA: 10 µL with 2 µg protein, 20 fmol biotin-labeled DNA, 2 µL 5x EMSA/Gel-Shift Binding Buffer (GS005, Beyotime); 6% polyacrylamide gel; salt, pH and temperature not stated. Conditions: protein: recombinant, tags: His (Methods: C-terminal; pET-SUMO vector).

The target in data set [2] is T1, BoERF1L-His (His-BoERF1L; Methods: …). The data set can be described thus: EMSA; unlabeled WTpro at 20x, 30x, 40x competes dose-dependently; EMSA: 10 µL with 2 µg protein, 20 fmol biotin-labeled DNA, 2 µL 5x EMSA/Gel-Shift Binding Buffer (GS005, Beyotime); 6% polyacrylamide gel; salt, pH and temperature not stated. Conditions: protein: recombinant; tags: His (Methods: C-terminal; pET-SUMO vector); label: biotin. For orientation: Mobility shift assays separate free from complexed probe on a gel.

T1 sequence (A0A0D3ABA8 entry or part of it): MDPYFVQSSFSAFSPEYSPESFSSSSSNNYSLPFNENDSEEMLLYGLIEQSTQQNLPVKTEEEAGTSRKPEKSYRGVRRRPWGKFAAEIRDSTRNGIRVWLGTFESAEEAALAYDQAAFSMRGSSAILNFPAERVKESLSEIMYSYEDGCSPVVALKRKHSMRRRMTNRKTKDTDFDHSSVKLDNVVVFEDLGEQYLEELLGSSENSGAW

B1: MTpro (dsDNA)
DNA 1: GATACATGTAAGTGCAGGTAGCTCATGCAGAAATTGACGGAACACAGAGTTACTCTGATTCTATA
DNA 2: TATAGAATCAGAGTAACTCTGTGTTCCGTCAATTTCTGCATGAGCTACCTGCACTTACATGTATC
For B1, in data set [1] (label: biotin), the binding result was “no binding”.

B2: WTpro (dsDNA)
DNA 1: GATACATGTAAGTGCAGGTAGCTCATGACAGAAATTGACGGAACACAGAGTTACTCTGATTCTATA
DNA 2: TATAGAATCAGAGTAACTCTGTGTTCCGTCAATTTCTGTCATGAGCTACCTGCACTTACATGTATC
As to B2, in data set [2], the binding result was “binds”.

B3: W7 (dsDNA)
DNA 1: CAGAAATTGACGGAAC
DNA 2: GTTCCGTCAATTTCTG
Turning to B3, the binding result in data set [1] was “no binding”.

B4: W1 (dsDNA)
DNA 1: GTGCAGGTAGCTCATG
DNA 2: CATGAGCTACCTGCAC
As for B4, in data set [1], the binding result is “no binding”.

For the origin of these results see article PMC10556095, “A natural mutation in the promoter of Ms-cd1 causes dominant male sterility in Brassica oleracea”.
